Biological target: T1, T. vaginalis cyclophilin 2 (TvCyP2), recombinant with C-terminal His-tag (Trichomonas vaginalis, UniProt A2DLL4 1-186)
T1 construct: TvCyP2 cyclophilin of Trichomonas vaginalis, with its N-terminal segment; secondary structure is described up to residue 184; theoretical molecular weight 20.947 kDa; 15N-labelled for the NMR experiments; Cloned into pET-29b by NdeI and XhoI; also called TvCyP2_apo1; TvCyP2_apo2; source: E. coli BL21(DE3), purified (Q-sepharose flow-through, Ni-NTA; SEC superdex-75 for crystallization and …)
Assay: NMR titration; 2D 1H-15N HSQC of the 15N-labelled protein without and with unlabelled TvCyP2(3-18) peptide (molar ratio 1:5); 800 MHz, 310 K; 20 mM NaH2PO4, 50 mM NaCl, pH 6.0, 10% D2O
Conditions: both partners purified

B1: TvCyP2_(3–18) peptide (peptide)
peptide: AFFATRVISAPKVTKK
notes: residues 3-18 of TvCyP2 of Trichomonas vaginalis (N-terminal segment); source: synthetic peptide, HPLC-grade, bought: Yao-Hong Biotechnology
binding result: binds
